Data: PMC4806929, “Two New Native β-Glucosidases from Clavispora NRRL Y-50464 Confer Its Dual Function as Cellobiose Fermenting Ethanologenic Yeast” (PLoS ONE, 2016)

Assays:
BGL2 = target: T1, BGL2 (Clavispora sp. NRRL Y-50464, UniProt A0A141S030); test: pNPG hydrolysis, absorbance at […] nm; type: biochemical; details: product inhibition; substrate pNPG; 100 mM citrate buffer, optimal pH and temperature (pH 5, 50°C); read-out: K i (mM) (against glucose)
T1 construct: C-terminal His tag, vector pPICZalphaA, expressed in Pichia X33; partially purified by Ni-NTA; GH3
T1 sequence (A0A141S030 1-804): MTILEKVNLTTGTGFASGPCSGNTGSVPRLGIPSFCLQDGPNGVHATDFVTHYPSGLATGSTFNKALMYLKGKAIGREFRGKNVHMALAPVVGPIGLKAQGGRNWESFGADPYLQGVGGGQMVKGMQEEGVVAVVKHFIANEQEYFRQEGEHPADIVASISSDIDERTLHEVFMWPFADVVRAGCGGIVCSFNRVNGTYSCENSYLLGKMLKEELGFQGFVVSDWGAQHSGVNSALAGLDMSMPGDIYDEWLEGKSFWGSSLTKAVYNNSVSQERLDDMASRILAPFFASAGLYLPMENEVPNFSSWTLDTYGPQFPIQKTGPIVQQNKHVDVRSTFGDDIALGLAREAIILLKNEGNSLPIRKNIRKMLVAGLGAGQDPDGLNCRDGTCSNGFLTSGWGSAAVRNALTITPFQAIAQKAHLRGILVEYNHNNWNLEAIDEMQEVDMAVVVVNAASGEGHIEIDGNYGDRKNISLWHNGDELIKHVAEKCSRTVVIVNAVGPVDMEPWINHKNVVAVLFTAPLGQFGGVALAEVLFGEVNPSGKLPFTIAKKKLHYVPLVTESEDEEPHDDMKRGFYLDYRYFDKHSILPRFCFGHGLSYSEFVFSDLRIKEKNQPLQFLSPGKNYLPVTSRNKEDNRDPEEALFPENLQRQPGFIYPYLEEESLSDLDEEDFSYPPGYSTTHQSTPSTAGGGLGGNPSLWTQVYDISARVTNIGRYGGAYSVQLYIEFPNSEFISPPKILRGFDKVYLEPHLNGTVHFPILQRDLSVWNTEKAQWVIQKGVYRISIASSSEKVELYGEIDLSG

BGL3 = target: T2, BGL3 (Clavispora sp. NRRL Y-50464, UniProt A0A141S029); test: pNPG hydrolysis, absorbance at […] nm; type: biochemical; details: product inhibition; substrate pNPG; 100 mM citrate buffer, optimal pH and temperature (pH 5, 55°C); read-out: K i (mM) (against glucose)
T2 construct: C-terminal His tag, vector pPICZalphaB, expressed in Pichia X33; partially purified by Ni-NTA; GH3
T2 sequence (A0A141S029 1-837): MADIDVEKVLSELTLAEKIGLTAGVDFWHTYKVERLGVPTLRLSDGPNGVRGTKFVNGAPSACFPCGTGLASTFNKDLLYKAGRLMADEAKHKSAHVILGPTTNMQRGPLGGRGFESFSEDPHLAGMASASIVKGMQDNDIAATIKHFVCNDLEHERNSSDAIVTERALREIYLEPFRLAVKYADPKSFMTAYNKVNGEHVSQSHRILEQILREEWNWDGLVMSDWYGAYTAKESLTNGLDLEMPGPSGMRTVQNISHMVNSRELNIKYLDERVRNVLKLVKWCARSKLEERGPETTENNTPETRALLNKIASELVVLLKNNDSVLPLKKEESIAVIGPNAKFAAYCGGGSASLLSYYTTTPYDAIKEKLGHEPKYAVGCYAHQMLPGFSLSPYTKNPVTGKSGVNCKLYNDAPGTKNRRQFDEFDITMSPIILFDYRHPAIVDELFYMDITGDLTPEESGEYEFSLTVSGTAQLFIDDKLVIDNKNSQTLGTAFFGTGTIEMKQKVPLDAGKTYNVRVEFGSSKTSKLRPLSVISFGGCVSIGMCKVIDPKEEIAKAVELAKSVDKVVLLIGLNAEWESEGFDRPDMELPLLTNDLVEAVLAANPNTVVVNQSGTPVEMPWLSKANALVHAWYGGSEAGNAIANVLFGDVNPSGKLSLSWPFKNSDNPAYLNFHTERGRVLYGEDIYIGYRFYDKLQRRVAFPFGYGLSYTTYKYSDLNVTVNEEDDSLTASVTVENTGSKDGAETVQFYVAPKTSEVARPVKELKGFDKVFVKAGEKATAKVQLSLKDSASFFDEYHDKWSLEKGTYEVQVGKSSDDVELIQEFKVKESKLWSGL

purified protein = substrate: O=[N+]([O-])c1ccc(O[C@@H]2O[C@H](CO)[C@@H](O)[C@H](O)[C@H]2O)cc1; test: purified protein; details: 100 mM citrate buffer

Molecule `OC[C@H]1OC(O)[C@H](O)[C@@H](O)[C@@H]1O` (stereo partly shown) [glucose] has a Ki (BGL2) of 62 ± 2.49 mM and a Ki (BGL3) of 38.3 ± 1.15 mM.

B1: BGL2 (Clavispora sp. NRRL Y-50464) (protein)
chain: MTILEKVNLTTGTGFASGPCSGNTGSVPRLGIPSFCLQDGPNGVHATDFVTHYPSGLATGSTFNKALMYLKGKAIGREFRGKNVHMALAPVVGPIGLKAQGGRNWESFGADPYLQGVGGGQMVKGMQEEGVVAVVKHFIANEQEYFRQEGEHPADIVASISSDIDERTLHEVFMWPFADVVRAGCGGIVCSFNRVNGTYSCENSYLLGKMLKEELGFQGFVVSDWGAQHSGVNSALAGLDMSMPGDIYDEWLEGKSFWGSSLTKAVYNNSVSQERLDDMASRILAPFFASAGLYLPMENEVPNFSSWTLDTYGPQFPIQKTGPIVQQNKHVDVRSTFGDDIALGLAREAIILLKNEGNSLPIRKNIRKMLVAGLGAGQDPDGLNCRDGTCSNGFLTSGWGSAAVRNALTITPFQAIAQKAHLRGILVEYNHNNWNLEAIDEMQEVDMAVVVVNAASGEGHIEIDGNYGDRKNISLWHNGDELIKHVAEKCSRTVVIVNAVGPVDMEPWINHKNVVAVLFTAPLGQFGGVALAEVLFGEVNPSGKLPFTIAKKKLHYVPLVTESEDEEPHDDMKRGFYLDYRYFDKHSILPRFCFGHGLSYSEFVFSDLRIKEKNQPLQFLSPGKNYLPVTSRNKEDNRDPEEALFPENLQRQPGFIYPYLEEESLSDLDEEDFSYPPGYSTTHQSTPSTAGGGLGGNPSLWTQVYDISARVTNIGRYGGAYSVQLYIEFPNSEFISPPKILRGFDKVYLEPHLNGTVHFPILQRDLSVWNTEKAQWVIQKGVYRISIASSSEKVELYGEIDLSG
In the case of B1, the Km (purified protein) is reported as 80 ± 10 µM, the Vmax (purified protein) is reported as 5.27 µmol/min/mg and the kcat (purified protein) is reported as 9.13 s⁻¹. It also gave a kcat/Km (purified protein) of 114000 ± 1570 M⁻¹ s⁻¹.

B2: BGL3 (Clavispora sp. NRRL Y-50464) (protein)
chain: MADIDVEKVLSELTLAEKIGLTAGVDFWHTYKVERLGVPTLRLSDGPNGVRGTKFVNGAPSACFPCGTGLASTFNKDLLYKAGRLMADEAKHKSAHVILGPTTNMQRGPLGGRGFESFSEDPHLAGMASASIVKGMQDNDIAATIKHFVCNDLEHERNSSDAIVTERALREIYLEPFRLAVKYADPKSFMTAYNKVNGEHVSQSHRILEQILREEWNWDGLVMSDWYGAYTAKESLTNGLDLEMPGPSGMRTVQNISHMVNSRELNIKYLDERVRNVLKLVKWCARSKLEERGPETTENNTPETRALLNKIASELVVLLKNNDSVLPLKKEESIAVIGPNAKFAAYCGGGSASLLSYYTTTPYDAIKEKLGHEPKYAVGCYAHQMLPGFSLSPYTKNPVTGKSGVNCKLYNDAPGTKNRRQFDEFDITMSPIILFDYRHPAIVDELFYMDITGDLTPEESGEYEFSLTVSGTAQLFIDDKLVIDNKNSQTLGTAFFGTGTIEMKQKVPLDAGKTYNVRVEFGSSKTSKLRPLSVISFGGCVSIGMCKVIDPKEEIAKAVELAKSVDKVVLLIGLNAEWESEGFDRPDMELPLLTNDLVEAVLAANPNTVVVNQSGTPVEMPWLSKANALVHAWYGGSEAGNAIANVLFGDVNPSGKLSLSWPFKNSDNPAYLNFHTERGRVLYGEDIYIGYRFYDKLQRRVAFPFGYGLSYTTYKYSDLNVTVNEEDDSLTASVTVENTGSKDGAETVQFYVAPKTSEVARPVKELKGFDKVFVKAGEKATAKVQLSLKDSASFFDEYHDKWSLEKGTYEVQVGKSSDDVELIQEFKVKESKLWSGL
B2 was tested, and the Km (purified protein) was 180 ± 20 µM, the Vmax (purified protein) was 1.63 µmol/min/mg and the kcat (purified protein) was 1.4 s⁻¹. The kcat/Km (purified protein) was 7710 M⁻¹ s⁻¹.
